Literature values in publication PMC6105697.

Target: NKG2D (Homo sapiens) (UniProt P26718)
Experiment: surface plasmon resonance

Chain of UniProt P26718 (P26718 whole entry): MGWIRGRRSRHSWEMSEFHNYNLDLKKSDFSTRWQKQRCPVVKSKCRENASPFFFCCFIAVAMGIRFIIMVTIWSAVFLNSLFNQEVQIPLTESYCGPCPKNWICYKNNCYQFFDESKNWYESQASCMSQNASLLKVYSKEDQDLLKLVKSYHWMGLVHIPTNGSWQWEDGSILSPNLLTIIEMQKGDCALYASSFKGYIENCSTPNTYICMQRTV

Q: Which Kd does the source give for ULBP0602 (from UniProt Q5VY80) here?
A: 15.5 nM
